Our source for the binding result, percent IFNγ+ cells towards 721.211-A2 cells and EC50 of peptide values is patent publication US20230242611A1 (YEDA RESEARCH AND DEVELOPMENT, published 2023).

Assay [1] concerns the target T1, MAGE-A1 278-286 with alanine at position 7 peptide on HLA-A*02:01 (human).
T1 peptide: KVLEYVAKV
The assay is described as follows: cytokine release.

Assay [2] has as its target T2, MAGE-A1 278-286 with alanine at position 8 peptide on HLA-A*02:01 (human).
T2 peptide: KVLEYVIAV
Put plainly: cytokine release.

Assay [3] deals with T3, MAGE-A1 278-286 with alanine at position 9 peptide on HLA-A*02:01 (human).
T3 peptide: KVLEYVIKA
Put plainly: cytokine release.

For assay [4], the target named is T4, MUC1 peptide on HLA-A*02:01 (human).
T4 peptide: LLLTVLTVV
The assay is described as follows: cytokine release.

The target of assay [5] is T5, MAGE-A1 278-286 with alanine at position 1 peptide on HLA-A*02:01 (human).
T5 peptide: AVLEYVIKV
Put plainly: cytokine release.

Assay [6] addresses T6, MAGE-A1 278-286 with alanine at position 2 peptide on HLA-A*02:01 (human).
T6 peptide: KALEYVIKV
The assay is described as follows: cytokine release.

In assay [7] the target is T7, MAGE-A1 278-286 with alanine at position 3 peptide on HLA-A*02:01 (human).
T7 peptide: KVAEYVIKV
The assay is described as follows: cytokine release.

Assay [8] concerns the target T8, MAGE-A1 278-286 with alanine at position 4 peptide on HLA-A*02:01 (human).
T8 peptide: KVLAYVIKV
The assay is described as follows: cytokine release.

In assay [9] the target is T9, MAGE-A1 278-286 with alanine at position 5 peptide on HLA-A*02:01 (human).
T9 peptide: KVLEAVIKV
Put plainly: cytokine release.

For assay [10], the target named is T10, MAGE-A1 278-286 with alanine at position 6 peptide on HLA-A*02:01 (human).
T10 peptide: KVLEYAIKV
The assay is described as follows: cytokine release.

Assay [11] deals with T11, MAGE-A1 peptide on HLA-A*02:01 (human).
T11 chain: KVLEYVIKV
Put plainly: intracellular IFNγ and IL2, 6 h; transduced human PBMCs; peptide-loaded T2 cells and 721.211-A2 cells that express the antigen; full-length, on cells. The settings on record: chains Valpha:Vbeta.

Assay [12] shares this target. The assay is described as follows: intracellular IFNγ; transduced human PBMCs (donor I); peptide titration on T2 cells; unit not printed for m2 (the others in pM); minimal activity not reached; full-length, on cells. The conditions noted are these: chains Valpha:Vbeta.

B1: hT27 TCR m2 (beta chain S109N) (TCR, V domains shown)
Valpha: GEDVEQSLFLSVREGDSSVINCTYTDSSSTYLYWYKQEPGAGLQLLTYIFSNMDMKQDQRLTVLLNKKDKHLSLRIADTQTGDSAIYFCAGSGGGTDKLIFGTGTRLQVFP
Vbeta: GAVVSQHPSWVICKSGTSVKIECRSLDFQATTMFWYRQFPKQSLMLMATSNEGSKATYEQGVEKDKFLINHASLTLSTLTVTSAHPEDSSFYICNAREPGQGPYEQYFGPGTRLTVT
For the molecule B1, the binding result in assay [1], in assay [2], in assay [3], in assay [4], in [5] and in [6] was “recognises” throughout. The binding result in assay [7], in assay [8], in [9] and in assay [10] was “recognises” throughout. In [11], this molecule showed a percent IFNγ+ cells towards 721.211-A2 cells of 49.7%. This molecule showed an EC50 of peptide in assay [12] of 0.289.
